Measurements published in article PMC4074165.
Substitutions are numbered along the chain they refer to. Read-outs that look alike come from different tables or passages of the source.

B1: P1-3 (ssRNA)
RNA: GGGUACUGUGUUUGAUAAAUGUUGUCCAGGUUCACUUGCCAAGAAUGUGUUGUCUAAAAUG
B2: P2-3 (ssRNA)
RNA: GGGAAAUGGUAGGGAGACAAAUAUACAUGUGAAAUAAACUCAGUAUUUUAAUAAAGU
B3: P1-1-mut1 (E1 U to C) (ssRNA)
RNA: GGGGAAAAGGGUUUAAACAGCCCGAAACACCCUGUCUUCAUUUCUGUAAUAGUUA
B4: P1-1 (ssRNA)
RNA: B3 RNA with C21U, C22U, C23U, C28U, C30U, C31U
B5: P1-1-mut3 (hinge U to C) (ssRNA)
RNA: GGGGAAAAGGGUUUAAACAGUUUGAAAUAUUCCGCCCCCACCCCCGUAAUAGUUA
B6: P2-2 (ssRNA)
RNA: GGGAGUAUGUAUGGAAUGUUAUGAUAGGACAUAGUAAUAGUGGUCAGAUGUGGAAA
B7: P1-1-mut2 (E2 U to C) (ssRNA)
RNA: GGGGAAAAGGGUUUAAACAGUUUGAAAUAUUCUGUCUUCAUUUCUGCAACAGCCA
B8: P2-1 (ssRNA)
RNA: GGGCCUGUUUAGUUUUCAAGGAUGGAACUCCACCCUUUACUUGGUUUUAAGU

Columns and labels:
Assay in all cases: EMSA
GST-HuR [1] = target: T1, GST-HuR (UniProt Q15717 1-326)
GST-HuR [2] = target: T1, GST-HuR; remark: listed apart in the source
GST-HuR [3] = target: T1, GST-HuR; remark: listed apart in the source
GST-HuR [4] = target: T1, GST-HuR; remark: listed apart in the source

T1 sequence (Q15717 whole entry): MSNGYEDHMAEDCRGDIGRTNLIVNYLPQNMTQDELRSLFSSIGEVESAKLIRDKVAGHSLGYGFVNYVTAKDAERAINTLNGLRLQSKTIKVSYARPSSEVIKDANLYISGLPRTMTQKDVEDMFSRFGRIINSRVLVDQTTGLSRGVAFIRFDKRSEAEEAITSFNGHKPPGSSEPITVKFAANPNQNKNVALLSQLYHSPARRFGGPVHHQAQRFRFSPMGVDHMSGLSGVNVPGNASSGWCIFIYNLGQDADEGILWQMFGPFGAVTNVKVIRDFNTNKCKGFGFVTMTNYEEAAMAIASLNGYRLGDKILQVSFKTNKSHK

| Binder | binding result (GST-HuR [1]) | further results |
| --- | --- | --- |
| B1 | no binding |  |
| GGGAUAUCUGGCUGUCCUUUUUAUAAUGCAAAGUGAGAACUUUCCCUAC (ssRNA) [P1-2] | no binding |  |
| B2 | no binding |  |
| B3 |  | binding result (GST-HuR [2]): no binding |
| B4 | binds |  |
| B5 |  | binding result (GST-HuR [3]): binds |
| B6 | no binding |  |
| B7 |  | binding result (GST-HuR [4]): no binding |
| B8 | no binding |  |
